Values quoted from earlier work as cited in article PMC10651016.

Tested on: Lys110
Assay: kinetics
Settings: steady-state turnover with L-proline; FAD-bound enzyme

L-proline dehydrogenase (ProDH) (Mycobacterium tuberculosis)
pKa: 6.8
